B1: Clone 19 anti-PD-1 antibody (antibody, V domains shown)
VH: QVQLQQSGAELVKPGASVKMSCKAFGYTFTTYPIEWMKQNHGKSLEWIGNFHPYNDDTKYNEKFKGKAKLTVEKSSTTVYLELSRLTSDDSAVYYCARENYGSHGGFVYWGQGTLVTV
VL: ENVLTQSPAIMSASPGEKVTMTCRASSSVISSYLHWYQQKSGASPKLWIYSTSNLASGVPDRFSGSGSGTSYSLTISSVEAEDAATYYCQQYNGYPLTFGAGTKLEIK
B2: Clone 2 anti-PD-1 antibody (antibody, V domains shown)
VH: QVQLQQPGAELVKPGASVKLSCKASGYTFTTYYLYWVRQRPGQGLEWIGGINPSNGGTNFNEKFKSKATLTVDKSSSTAYMQLNSLTSEDSAVYYCTRRDYRYDRGFDYWGQGTSVTV
VL: DIVLTQSPASLAVSLGQRATISCRASKSVSTSGFNYIHWYQQKPGQPPKLLIYLASNLESGVPARFSGSGSGTDFTLNIHPVEDEDAATYYCQHSRELPLTFGAGTKLEIK
B3: Clone 10 anti-PD-1 antibody (antibody, V domains shown)
VH: DVQLQESGPGLVKPSQSLSLTCTVTGYSITSDYAWNWIRQFPGNKLEWMGYINYSGSTSYNPSLKSRISITRDTSKNQFFLQLNSVTTEDTATYYCARWIGSSAWYFDVWGAGTTVTV
VL: DVLMTQTPLSLPVSLGDQASISCRSGQNIVHSNGNTYLEWYLQKPGQSPKLLIYKVSNRFFGVPDRISGSGSGTDFTLKISRVEAEDLGVYFCFQGSHVPFTFGSGTKLEIK

In this experiment the target is Monomeric soluble human PD-1 (human, UniProt Q15116 25-170). The experiment in a line: SPR; pH 7.4. (In SPR one partner is held on a chip, and binding of the other changes the refractive index at the surface.)
Chain of Monomeric soluble human PD-1 (Q15116 25-170): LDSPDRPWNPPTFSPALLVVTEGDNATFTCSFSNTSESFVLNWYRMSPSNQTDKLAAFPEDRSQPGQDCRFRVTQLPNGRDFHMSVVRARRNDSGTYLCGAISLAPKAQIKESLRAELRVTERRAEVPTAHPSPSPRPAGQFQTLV
Molecule B1 displayed an off-rate (koff) of about 0.0013 s⁻¹. In the case of B2, the koff is about 0.0027 s⁻¹. Molecule B3 showed a koff of about 0.4 s⁻¹.

A word on the koff: it is the rate constant with which the complex falls apart. High values mean fast dissociation, low ones slow dissociation.
